This is an account of results in PMC6858323 (2019).

B1: PilT^Pa two-hybrid fusion from pKT25::PilT^Pa (wild type) [Pseudomonas aeruginosa] / PilC^Pa two-hybrid fusion from pUT18C::PilC^Pa [Pseudomonas aeruginosa] (parent complex)
chain 1: MDITELLAFSAKQGASDLHLSAGLPPMIRVDGDVRRINLPPLEHKQVHALIYDIMNDKQRKDFEEFLETDFSFEVPGVARFRVNAFNQNRGAGAVFRTIPSKVLTMEELGMGEVFKRVSDVPRGLVLVTGPTGSGKSTTLAAMLDYLNNTKYHHILTIEDPIEFVHESKKCLVNQREVHRDTLGFSEALRSALREDPDIILVGEMRDLETIRLALTAAETGHLVFGTLHTTSAAKTIDRVVDVFPAEEKAMVRSMLSESLQSVISQTLIKKIGGGRVAAHEIMIGTPAIRNLIREDKVAQMYSAIQTGGSLGMQTLDMCLKGLVAKGLISRENAREKAKIPENF
chain 2: MLVKAHLRKQGINPLKVRKKGISLLGAGKKVKPMDIALFTRQMATMMGAGVPLLQSFDIIGEGFDNPNMRKLVDEIKQEVSSGNSLANSLRKKPQYFDELYCNLVDAGEQSGALENLLDRVATYKEKTESLKAKIRKAMTYPIAVIIVALIVSAILLIKVVPQFQSVFQGFGAELPAFTQMVVNLSEFLQEWWLAVIVGVGAIGFTFKELHKRSKKFRDTLDRTILKLPIFGGIVYKSAVARYARTLSTTFAAGVPLVDALDSVSGATGNIVFKNAVSKIKQDVSTGMQLNFSMRTTSVFPNMAIQMTAIGEESGSLDEMLSKVASYYEEEVDNAVDNLTTLMEPMIMAVLGVLVGGLIVAMYLPIFQLGNVVG

The assay covers variants of B1. The experiment in a line: bacterial two-hybrid (BACTH), β-galactosidase activity; E. coli BTH101; n = 3; parent: 650; read off a plot.
In the case of chain 1 K58A, the response is ~700 Miller units.
In the case of chain 1 K58R it was ~750 Miller units; in that of chain 1 K58Q, ~630 Miller units.
The result for chain 1 E258A reads ~850 Miller units; that for chain 1 E219K, ~230 Miller units; that for chain 1 R123D, ~140 Miller units.
Consider chain 1 T216R, for which the response is ~700 Miller units.
Regarding chain 1 R294E, the response was ~200 Miller units.
For the variant chain 1 R239A, the response was ~490 Miller units.
Regarding chain 1 D242K, the response was ~670 Miller units.
For the variant chain 1 D31K, the response is ~220 Miller units.
